Article doi:10.1101/2020.04.20.051433

Target: Cpn60 (chloroplast chaperonin) of pea stroma (P. sativum (endogenous in pea chloroplasts))
Assay: native gel or EMSA

Plsp1 Δβ1-2 imported into isolated chloroplasts (from UniProt Q8H0W1 68-291) (domain or fragment)
reduction of the 700-kDa band against full-length Plsp1: 80%
